Source: US20040214771

Molecular target: T1, recombinant purified full length SRF (pET-15b, histidine tag, expressed in BL21)
T1 chain: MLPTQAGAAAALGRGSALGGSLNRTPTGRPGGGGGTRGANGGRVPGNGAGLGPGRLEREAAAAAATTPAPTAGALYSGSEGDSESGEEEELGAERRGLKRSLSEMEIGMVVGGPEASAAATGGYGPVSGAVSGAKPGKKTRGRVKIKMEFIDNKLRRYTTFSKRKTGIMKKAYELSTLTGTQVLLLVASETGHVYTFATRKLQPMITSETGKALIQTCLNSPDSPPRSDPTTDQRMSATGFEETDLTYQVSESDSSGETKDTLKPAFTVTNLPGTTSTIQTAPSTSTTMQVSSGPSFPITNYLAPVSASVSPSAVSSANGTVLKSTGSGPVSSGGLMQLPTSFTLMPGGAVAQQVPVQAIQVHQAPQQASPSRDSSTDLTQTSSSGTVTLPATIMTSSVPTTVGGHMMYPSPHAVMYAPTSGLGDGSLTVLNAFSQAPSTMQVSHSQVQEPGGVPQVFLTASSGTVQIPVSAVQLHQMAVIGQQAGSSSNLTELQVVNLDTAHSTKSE

B1: active recombinant human caspase 3 (BD PharMingen) (protein)
chain: SGISLDNSYKMDYPEMGLCIIINNKNFHKSTGMTSRSGTDVDAANLRETFRNLKYEVRNKNDLTREEIVELMRDVSKEDHSKRSSFVCVLLSHGEEGIIFGTNGPVDLKKITNFFRGDRCRSLTGKPKLFIIQACRGTELDCGIETDSGVDDDMACHKIPVEADFLYAYSTAPGYYSWRNSKDGSWFIQSLCAMLKQYADKLEFMHILTRVNRKVATEFESFSFDATFHAKKQIPCIVSMLTKELYFYH
Q: Which “in vitro cleavage of SRF, read by Western blot” value does the source give for B1 here?
A: Caspase 3 cleaved SRF in a time-dependent manner
